Experiments:
[1] = particle / droplet size by photon correlation spectroscopy (Coulter N4 Plus); type: physicochemical
Procedure: To determine the existence of an oil-in-water microemulsion window for the microemulsion precursor, exactly two (2) milligrams of emulsifying wax were weighed accurately into ten separate 7-mL glass vials and melted at 50° C. on a temperature calibrated magnetic hot plate. Water (0.2 μm filtered) was then added (750-1000 μL) to form a homogeneous milky slurry in the stirring water at 50° C. To form the microemulsion precursor, the surfactant polyoxy 20 stearyl ether (100 mM) in water was added (0-250 μL) so that the final surfactant concentration ranged from 0 mM to 25 mM in the ten vials. The microemulsion precursor was then removed from heat (52-54° C.) and allowed to cool to 25° C. while stirring. […] Thus, an apparent microemulsion window was defined. One hundred (100) μL of each cooled system was taken and diluted with 900 μL water. The particle size of the diluted solid nanoparticles was determined using a Coulter N4 Plus Sub-Micron Particle Sizer at 20° C. by scattering light at 90° for 120 seconds. The particle sizes of systems with no surfactant added could not be determined since the systems contained precipitates that were greater than 3000 nm in diameter. […] To determine if the measured droplet sizes in either the microemulsion nanotemplate or the cured solid nanoparticles were due to the presence of surfactant micelles, samples were made as described above with no emulsifying wax and with final surfactant concentrations ranging from 0 mM to 100 mM in water. […] It is likely that the relatively heterogeneous nature of the polymeric surfactant makes the determination of its CMC difficult using conventional techniques. Photon correlation spectroscopy, using a Coulter N4 Plus Submicron Particle Sizer, was used to determine the existence and the size of the surfactant micelles.
Preparation of polyoxyethylene 2 stearyl ether nanoparticles. Three separate samples of polyoxyethylene 2 stearyl ether nanoparticles were engineered using the following process. Polyoxyethylene 2 stearyl ether (2 mg) was melted at 50-55° C. and dispersed in 970 microliters of water at the same temperature. Thirty microliters of solution of Tween 80 (10% v/v in water) was added to produce a clear oil-in-water microemulsion at approximately 55° C. The oil droplet size of liquid polyoxyethylene 2 stearyl ether was measured by photon correlation spectroscopy to be 22.2±1.8 nanometers at approximately 55° C. Polyoxyethylene 2 stearyl ether nanoparticles were cured by three different methods as follows: Method A) cooling of the undiluted oil-in-water microemulsion at 55° C. to room temperature while stirring, Method B) cooling of the oil-in-water microemulsion at 55° C. by placing undiluted in a refrigerator at 4° C., and Method C) diluting (1/10) the oil-in-water microemulsion at 55° C. with water at 4° C. […] Further, Method A illustrated a key advantage of simply allowing the oil-in-water microemulsion to cool to room temperature to form useful solid nanoparticles. This method allows for rapid, reproducible, and cost-effective method to engineer useful nanoparticles.
Preparation of Emulsifying Wax nanoparticles. Three separate samples of emulsifying wax nanoparticles were engineered using the following process. Emulsifying wax (2 mg) was melted at 50-55° C. and dispersed in 970 microliters of water at the same temperature. […] The oil droplet size of liquid emulsifying wax was measured by photon correlation spectroscopy to be 24.5±0.4 nanometers at approximately 55° C. […]

[2] = cited from earlier work
[3] = ASF-pal alone in water, 1340 μg/mL

Compound: CC(=O)C=C(C)[O-].CC(=O)C=C(C)[O-].CC(=O)C=C(C)[O-].[Gd+3] [GdAcAc, Gadolinium acetylacetonate]
- diameter of nanoparticles entrapping GdAcAc [1]: about 50 nanometers

Compound: c1ccc(-c2cnc(-c3ccccc3)o2)cc1 [PPO, 2,5-diphenyloxazole]
- classification of water solubility [2]: water-insoluble

Compound: ASF-pal: Asialofetuin derivatized with about 12 palmitate arms per molecule; ligand
- effect of added ASF-pal on particle size of cured solid nanoparticles ([1]; 200 μg nanoparticles per 1 mL): only a small effect
- size of micelles formed ([1]; ASF-pal alone in water, 67 μg/mL): 3-15 nm
- size of larger aggregates formed [1, 3]: 40-300 nm
- size of micelles formed [1, 3]: 3-10 nm
